Experimental data from patent US12565506B2, “Nitrogen-containing macrocyclic conjugates as radiopharmaceuticals” (Clarity Pharmaceuticals Ltd., priority 2008, dated 2026).

Experiment: Serum stability of 64Cu-labelled Sar-peptides by radio-HPLC
Format: in vitro ADME
Settings: human male AB serum, 37° C.
Protocol: Human male AB serum (200 μL) was added to a solution of [^64CuL^1-Tyr^3-octreotate]^2+ (200 μL). This solution was incubated in a water bath at 37° C. At time points of 1 hr, 4 hr and 20 hr an aliquot of this serum solution (100 μL) was removed for radio-HPLC analysis: acetonitrile (200 μL) was added to the serum aliquot to precipitate serum proteins. This mixture was filtered and the acetonitrile evaporated under a stream of argon gas. The final volume was <100 μL. The solution was frozen at −70° C. until injection onto the HPLC column. 1 hr: Retention time 12.716 min, >95% radiochemical yield; 4 hr: Retention time 12.725 min, >95% radiochemical yield; 20 hr: Retention time 12.800 min, >95% radiochemical yield.
A single time point serum stability study for [^64CuL^1-Lys3-bombesin]^2+ was conducted in the same way as studies for [^64CuL^1-Tyr^3-octreotate]^2+. An aliquot of [^64CuL^1-Lys3-bombesin]^2+ (200 μL) was added to human male AB serum and incubated at 37° C. After 2 hr, the sample was subjected to the same treatment as described above and injected onto the HPLC column. 2 hr: Retention time 12.828 min, >95% radiochemical yield.

| SMILES | radiochemical yield (intact complex by radio-HPLC) after incubation in serum (2 hr) [%] | radiochemical yield (intact complex by radio-HPLC) after incubation in serum (1 hr) [%] | radiochemical yield (intact complex by radio-HPLC) after incubation in serum (4 hr) [%] | radiochemical yield (intact complex by radio-HPLC) after incubation in serum (20 hr) [%] |
| --- | --- | --- | --- | --- |
| CSCC[C@H](NC(=O)[C@H](CC(C)C)NC(=O)[C@H](Cc1c[nH]cn1)NC(=O)CNC(=O)[C@@H](NC(=O)[C@H](C)NC(=O)[C@H](Cc1c[nH]c2ccccc12)NC(=O)[C@H](CCC(N)=O)NC(=O)[C@H](CC(N)=O)NC(=O)CNC(=O)[C@H](CC(C)C)NC(=O)[C@H](CCCCNC(=O)CCCC(=O)NC12CNCCNCC(N)(CNCCNC1)CNCCNC2)NC(=O)[C@H](CCC(N)=O)NC(=O)[C@@H]1CCC(=O)N1)C(C)C)C(N)=O (64Cu complex, metal not drawn) [[^64CuL^1-Lys3-bombesin]^2+] | > 95 |  |  |  |
| CC(O)[C@H](NC(=O)C1CSSC[C@H](NC(=O)[C@@H](Cc2ccccc2)NC(=O)CCCC(=O)N[C@]23CNCCNC[C@]4(N)C[N]5CC[N](C2)[Cu]52([CH3])([CH3])[N](CC[N]2C3)C4)C(=O)N[C@@H](Cc2ccc(O)cc2)C(=O)N[C@H](Cc2c[nH]c3ccccc23)C(=O)N[C@@H](CCCCN)C(=O)N[C@@H](C(C)O)C(=O)N1)C(=O)O (stereo partly shown) [[^64CuL^1-Tyr^3-octreotate]^2+] |  | > 95 | > 95 | > 95 |
